Results as given in PMC5234120, “Age-related macular degeneration associated polymorphism rs10490924 in ARMS2 results in deficiency of a complement activator” (Journal of Neuroinflammation, 2017).

What was measured:
[1] = target: T1, properdin (human, UniProt P27918 28-469); assay: BLI; BLITZ system; His-tagged ARMS2 loaded on Ni2+ NTA biosensors in PBS with 0.1% gelatin; properdin 70 to 1800 nM; 1:1 model; conditions: both partners purified
T1 construct: properdin (complement factor P), human; the oligomeric state of the purified protein was not measured here; also called purified properdin; source: bought: Complement Technologies (CompTech), purified; bought: TECOmedical GmbH (peptide ELISA); endogenous, normal human serum (NHS)
T1 sequence (P27918 28-469): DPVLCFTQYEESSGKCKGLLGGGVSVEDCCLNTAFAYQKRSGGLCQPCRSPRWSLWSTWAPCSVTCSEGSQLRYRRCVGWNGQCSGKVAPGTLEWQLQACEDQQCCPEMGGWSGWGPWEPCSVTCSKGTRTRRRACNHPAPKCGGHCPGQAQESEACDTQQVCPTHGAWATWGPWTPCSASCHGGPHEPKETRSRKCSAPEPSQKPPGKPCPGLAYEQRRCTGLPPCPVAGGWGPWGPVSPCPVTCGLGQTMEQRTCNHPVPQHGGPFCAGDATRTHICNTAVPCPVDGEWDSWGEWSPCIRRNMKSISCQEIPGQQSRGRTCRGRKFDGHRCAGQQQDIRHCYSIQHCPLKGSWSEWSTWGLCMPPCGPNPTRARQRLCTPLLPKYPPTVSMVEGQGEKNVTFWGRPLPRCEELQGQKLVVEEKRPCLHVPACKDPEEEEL

[2] = target: T1, properdin; assay: ELISA; ARMS2 peptides 1, 2, 3 (each 500 nM) coated on the plate; 2 uM properdin (TECOmedical) in PBS; detected with monoclonal properdin antibody; conditions: both partners purified

Row | Binder | Kd [1] [nM] | binding result [2]
1 | recombinant ARMS2 (age-related maculopathy susceptibility 2) (natural protein, human, UniProt P0C7Q2 1-107, looked up, ARMS2, human, codon usage optimized full length cDNA; Glycosylated in P. pastoris (17 and 15 kDa bands); also called His-tagged ARMS2; rARMS2) MLRLYPGPMVTEAEGKGGPEMASLSSSVVPVSFISTLRESVLDPGVGGEGASDKQRSKLSLSHSMIPAAKIHTELCLPAFFSPAGTQRRFQQPQHHLTLSIIHTAAR | 500 | –
2 | IHTELCLPAFFSPAGTQRRFQQPQHHLTLSIIHTAAR (ARMS2, human, amino acids 71 to 107; also called C-terminal peptide 3 of ARMS2; source: peptide generated by Jerini Peptide Biotechnologies) [ARMS2 peptide 3 (amino acids 71 to 107)] | – | binds
